Experimental findings from patent publication US20150290329A1 are described below.

The target in one test is 8-arm-PEG-P1 (40 kDa). The experiment in a line: cell-based or functional assay.
The next test has as its target 8-arm-PEG-P2 (20 kDa). The experiment in a line: cell-based or functional assay.

Chain of 8-arm-PEG-P2 (20 kDa) (peptide, as listed by the source): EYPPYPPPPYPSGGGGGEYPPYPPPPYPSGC

“C7 recombinant protein polymer (seven repeats of the CC43 WW domain) (designed binder)” showed a storage modulus G′ of the hydrogel 8P1-40k in the test with 8-arm-PEG-P1 (40 kDa) of 3.9 Pa. This substance came in with a storage modulus G′ of the hydrogel 8P2-20k with 8-arm-PEG-P2 (20 kDa) of 15 Pa.
